Test results taken from US20140056903A1 (Regeneron, published 2014).

T1: human GFRα3 on HEK293/hGFRα3/hRET/SRE-luc cells (human, UniProt O60609 32-382)
T1 sequence: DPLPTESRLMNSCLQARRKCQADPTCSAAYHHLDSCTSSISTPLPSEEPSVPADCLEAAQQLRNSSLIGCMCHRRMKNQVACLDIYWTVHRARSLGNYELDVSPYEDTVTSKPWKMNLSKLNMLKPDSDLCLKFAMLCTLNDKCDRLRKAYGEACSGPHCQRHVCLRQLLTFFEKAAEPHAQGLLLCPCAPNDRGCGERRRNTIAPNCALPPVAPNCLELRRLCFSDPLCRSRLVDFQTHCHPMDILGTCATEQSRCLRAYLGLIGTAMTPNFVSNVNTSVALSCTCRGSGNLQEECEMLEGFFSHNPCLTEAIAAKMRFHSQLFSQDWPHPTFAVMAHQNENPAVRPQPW

B1: H4H2342P (antibody, human IgG4, V domains shown)
VH: EVQLLESGGGLVQPGGSLRLSCAASGFTFSTYAMSWVRQAPGKGLEWVSAIRGNGVNTYYGDSMKGRFTISRDNSKDTLYLQMNSLRAEDTAVYYCAKNKWELLVFEYWGQGTLVTVSS
VL: DIQMTQSPSSLSASVGDRVTITCRASQDISNYLAWYQQKPGKVPKLLIYAASTLQSGVPFRFSGSGSGTDFTLTISSLQPEDVATYYCQKYNSAPPFGPGTKVDIK
notes: human IgG4 Fc (H4H)
B2: H4H2357S (antibody, human IgG4, V domains shown)
VH: EVQLVESGGGLVQPGGSLRLSCAASTFTFSSYAMTWVRQAPGKGLEWVSSISGSGDSTYYADSVKGRFTISRDNSKNTLFLQMNSLRAEDTAVYYCAKKDGPGRYYVRYGMDVWGQGTTVTVSS
VL: DIQMTQSPSSVSASVGDRVTITCRASQGISSWLAWYQQKPGKAPKLLIYTTSSLQSGVPSRFSGSGSGTDFTLTISSLQPEDFATYYCQQANSFPLTFGGGTKVDIK
notes: human IgG4 Fc (H4H)
B3: H4H2243N2 (antibody, human IgG4, V domains shown)
VH: QVQLVQSGAEVKKPGASVKVSCKASGYTFTSYGIIWVRQAPGQGLEWMGWISGYNGNTNYAQNLQGRVTMTTDTSTTTAYMELRSLRSDDTAVYYCARWGIATRPYYYYGMDVWGQGTTVTVSS
VL: DIQMTQSPSSLSASVGDRVTITCRASQDITNYLAWFQQKPGKAPKSLIYAASSLQSGVPSKFSGSGSGTDFTLTISSLQPEDFATYYCQQYNSYPPTFGPGTKVDIK
notes: human IgG4 Fc (H4H)
B4: H4H2292S (antibody, human IgG4, V domains shown)
VH: EVQLVESGGGVVQPGRSLRLSCAASGFTFSSYGMHWVRQAPGKGLEWVSFIWYDGSNKYYADSVKGRFTISRDNSKNTLYLQMNSLTAEDTAVYYCARRGILTGTTAFDIWGQGTMVTVSS
VL: DIQMTQSPSSLSASVGDRVTITCRASQSISSYLNWYQQKPGKAPKLLIYAASSLQSGVPSRFSGSGSGTDFTLTIRSLIPEDFATYYCQQTYNTPFTFGPGTKVEIK
notes: human IgG4 Fc (H4H)
B5: H4H2212N (antibody, human IgG4, V domains shown)
VH: EVQLLESGGGLVQPGGSLRLSCAASGFTFSSYAMSWVRQGPGKGLEWVSGISGSGGSTYNADSVKGRFTISRDNSKNTLYLQMNSLRAEDTAVYYCAKDSGTYWYYFDYWGQGILVTVSS
VL: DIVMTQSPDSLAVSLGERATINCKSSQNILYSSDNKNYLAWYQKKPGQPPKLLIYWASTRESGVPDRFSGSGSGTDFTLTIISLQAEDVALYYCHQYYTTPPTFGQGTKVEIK
notes: human IgG4 Fc (H4H)
B6: H4H2355S (antibody, human IgG4, V domains shown)
VH: EVQLVESGGGLVQPGGSLRLSCAASGFTFSSYAMSWVRQVPGKGLEWVSAISGSGDNTYNAESVKGRFTISRDNSKNMLYLQMNSLRAEDTAVYYCAKTKFSSSLLFDYWGQGTLVTVSS
VL: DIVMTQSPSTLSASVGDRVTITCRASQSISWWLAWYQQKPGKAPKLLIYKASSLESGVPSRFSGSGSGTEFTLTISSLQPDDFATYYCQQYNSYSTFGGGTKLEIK
notes: human IgG4 Fc (H4H)
B7: H4H2352S (antibody, human IgG4, V domains shown)
VH: EVQLVQSGAEVKKPGASVKVSCKASGYTFTNYGITWVRQAPGQGLEWMGWISAYNGNTGYAQKFQGRVTMTTDTSTSTAYMELRSLRSDDTAVYYCAREDYDFWRAFDIWGQGTMVTVSS
VL: EIVLTQSPGTLSLSPGERATLSCRASQSVSSTYLAWLQQKPGQAPRLLIYGASSRATGIPDRFSGSGSGTDFTLTINRLEPEDFAVYYCQQYAYSPYTFGQGTKLEIK
notes: human IgG4 Fc (H4H); also called H4H2352S-1

Columns and labels:
[1] = molecular target: T2, human GFRα3 expressed with a C-terminal myc-myc-hexahistidine tag (human, UniProt O60609 32-374, biotinylated (sites not given) in ELISA format 2 and in the Octet cross-competition; not in SPR); test: Octet cross-competition; biotin-hGFRα3-mmH pre-saturated with first antibody H4H2296S
T2 construct: also called hGFRα3-mmh; hGFRα3-mmH
Procedure: (§1) A cross-competition assay was conducted to assess the ability of select antibodies to compete with one another for binding to human GFRα3 using an Octet RED384 biosensor (Fortebio Inc.). The entire experiment was performed at 25° C. with the flow rate of 1000 rpm in Octet HBST buffer (0.01 M HEPES pH7.4, 0.15M NaCl, 3 mM EDTA, 0.05% v/v Surfactant P20, 0.1 mg/mL BSA). To assess whether 2 antibodies were able to compete with one another for binding to their respective epitopes on biotinylated recombinant human GFRα3 expressed with a C-terminal myc-myc-hexahistidine tag (biotin-hGFRα3-mmH; SEQ ID:370), around ˜1.2 nm of biotin-hGFRα3-mmH was first captured onto streptavidin-coated Octet sensor tips (Fortebio Inc, #18-5019) by submerging the tips for 1 minute into a 10 μg/mL solution of biotin-hGFRα3-mmH. The antigen coated sensor tips were then placed into wells containing 25 μg/mL solution of a first anti-GFRα3 monoclonal antibody for 4 minutes to saturate the biotin-hGFRα3-mmH surface. The sensor tips were then subsequently dipped into wells containing 25 μ/mL solution of a second anti-GFRα3 monoclonal antibody. The sensor tips were washed in Octet HBST buffer in between every step of the experiment. The real-time binding response was monitored during the course of the experiment and the binding response at the end of every step was recorded as shown in FIG. 9. The response of mAb-2 binding to biotin-hGFRα3-mmH pre-complexed with the first antibody was compared and competitive/non-competitive behavior of different anti-GFRα3 monoclonal antibodies was determined.

[2] = molecular target: T2, human GFRα3 expressed with a C-terminal …; test: Octet cross-competition; biotin-hGFRα3-mmH pre-saturated with first antibody H4H2212N
Procedure: as §1

[3] = molecular target: T2, human GFRα3 expressed with a C-terminal …; test: Octet cross-competition; biotin-hGFRα3-mmH pre-saturated with first antibody H4H2342P
Procedure: as §1

[4] = molecular target: T2, human GFRα3 expressed with a C-terminal …; test: Octet cross-competition; biotin-hGFRα3-mmH pre-saturated with first antibody H4H2294S
Procedure: as §1

[5] = molecular target: T2, human GFRα3 expressed with a C-terminal …; test: Octet cross-competition; biotin-hGFRα3-mmH pre-saturated with first antibody H4H2355S
Procedure: as §1

[6] = molecular target: T2, human GFRα3 expressed with a C-terminal …; test: Octet RED384; 25 µg/mL first antibody on streptavidin-captured biotin-hGFRα3-mmH
Procedure: as §1

[7] = molecular target: T2, human GFRα3 expressed with a C-terminal …; test: Octet cross-competition; biotin-hGFRα3-mmH pre-saturated with first antibody H4H2295S
Procedure: as §1

[8] = molecular target: T1, human GFRα3 on …; test: cell-based or functional assay

Binder	binding response of second antibody (nm) [1]	binding response of second antibody (nm) [2]	binding response of second antibody (nm) [3]	binding response of second antibody (nm) [4]	binding response of second antibody (nm) [5]	Amount of Antibody 1 bound (nm) [6]	binding response of second antibody (nm) [7]	IC50 (SRE-luc, HEK293/hGFRα3/hRET cells, 100 pM hARTEMIN-mmH) [8]
B1	0.03 nm	2.17 nm	0.06 nm	0.01 nm	0.06 nm	2.69 nm	0.01 nm	1 nM
B2	0.06 nm	2.38 nm	0.25 nm	0.03 nm	0.16 nm	2.82 nm	0.05 nm	4.9 nM
B3	0.06 nm	0.16 nm	0.11 nm	0.03 nm	0.09 nm	2.42 nm	0.01 nm	0.3 nM
B4	1.87 nm	1.76 nm	1.85 nm	1.92 nm	1.92 nm	2.82 nm	1.8 nm	4.6 nM
B5	1.76 nm	0.05 nm	1.76 nm	1.92 nm	1.95 nm	2.32 nm	1.81 nm	0.8 nM
B6	0.02 nm	2.05 nm	0.16 nm	0 nm	0.07 nm	2.73 nm	0.02 nm	2.3 nM
B7	2.01 nm	0.08 nm	1.72 nm	1.99 nm	1.97 nm	2.74 nm	1.85 nm	0.92 nM
